Experimental findings from article PMC7677135 (Biophysical Journal, 2020) are described below.

The target in the experiment is T1, PDK1 50–359 [Y288G,Q292A] (human, UniProt O15530 50-359, Y288G | Q292A).
T1 sequence (looked up): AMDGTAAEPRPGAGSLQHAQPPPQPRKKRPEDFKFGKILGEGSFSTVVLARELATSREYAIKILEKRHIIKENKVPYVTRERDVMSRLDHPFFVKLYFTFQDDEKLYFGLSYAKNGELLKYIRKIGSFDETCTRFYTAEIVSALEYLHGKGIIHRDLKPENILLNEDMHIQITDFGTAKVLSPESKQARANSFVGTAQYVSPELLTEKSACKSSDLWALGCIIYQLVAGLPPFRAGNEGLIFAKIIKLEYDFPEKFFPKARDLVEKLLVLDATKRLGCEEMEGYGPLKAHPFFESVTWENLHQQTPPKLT
Description: HDX-MS.

As to REPRILSEEEQEMFRDFDYIADWC [PIFtide], the binding result is on record as “binds”.
